The record followed here is paper PMC9714796 (2022).

This assay has as its target T1, TGF-βRII-Fc (muTGFbRII-mFc) (mouse (from the printed name …, UniProt Q62312 24-166)).
T1 chain: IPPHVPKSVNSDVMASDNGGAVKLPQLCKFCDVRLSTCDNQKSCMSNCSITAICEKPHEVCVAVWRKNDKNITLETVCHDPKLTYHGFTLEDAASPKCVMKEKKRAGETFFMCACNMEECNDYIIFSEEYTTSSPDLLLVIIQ
The assay is described as follows: SPR. In general terms: In SPR one partner is held on a chip, and binding of the other changes the refractive index at the surface.

B1: Transforming growth factor-β3 (TGF-β3) (ligand)
chain: ALDTNYCFRNLEENCCVRPLYIDFRQDLGWKWVHEPKGYYANFCSGPCPYLRSADTTHSTVLGLYNTLNPEASASPCCVPQDLEPLTILYYVGRTPKVEQLSNMVVKSCKCS
B1: the koff (commonly a measure of how fast the partners let go of each other) came to 0.0013 s⁻¹.
